According to patent US7265201 (Takeda / Millennium, dated 2007):

Columns and labels:
[1] = target: T1, synthetic human eotaxin (predicted mature protein consisting of amino acids 24-97) (human, UniProt P51671 24-97); assay: radiolabeled eotaxin on 5×10^5 transfected L1-2 cells, with or without 125 nM unlabeled eotaxin
T1 construct: also called clone #25 polypeptide; synthetic mature eotaxin
Protocol: Figure 11: FIG. 11 is a bar graph illustrating the binding of human eotaxin to CKR-3 transfected L1-2 cells. Radiolabeled eotaxin was incubated with 5 ×10^5 transfected cells or untransfected L1-2 cells.

[2] = target: T1, synthetic human eotaxin (predicted …); assay: Scatchard analysis of competition of unlabeled eotaxin with 125I-eotaxin on purified human eosinophils
Protocol: Binding of RANTES, MIP-1α and human eotaxin was carried out in binding buffer consisting of 50 mM HEPES supplemented with 1 mM CaCl_2, 5 mM MgCl_2 and 0.5% BSA. […] The final reaction volume was 200 μls. Total binding was carried out in the absence of unlabeled chemokines, and non-specific binding was determined by incubating cells with radiolabeled chemokine in the presence of 250 nM of cold chemokine. At the end of incubation, cells were washed 3 times in binding buffer plus 0.5 M NaCl. The cell pellets were transferred into LP3 tubes and counted in a gamma counter.
RANTES and MIP-1a were not able to compete with eotaxin under the conditions used. […] The observed dissociation constant is analogous to other chemokine-receptor dissociation constants.

T1 sequence (P51671 24-97): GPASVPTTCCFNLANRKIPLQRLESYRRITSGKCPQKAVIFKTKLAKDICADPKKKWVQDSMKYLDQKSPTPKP

B1: FLAG-tagged human C-C chemokine receptor 3 (CKR-3) expressed on transfected mouse L1-2 pre-B lymphoma cells (receptor)
chain: MDYKDDDDKEFTTSLDTVETFGTTSYYDDVGLLCEKADTRALMAQFVPPLYSLVFTFGLLGNVVVVMILIKYRRLRIMTNIYLLNLAISDLLFLVTLPFWIHYVRGHNWVFGHGMCKLLSGFYHTGLYSEIFFIILLTIDRYLAIVHAVFALRARTVTFGVITSIVTWGLAVLAALPEFIFYETEELFEETLCSALYPEDTVYSWRHFHTLRMTIFCLVLPLLVMAICYTGIIKTLLRCPSKKKYKAIRLIFVIMAVFFIFWTPYNVAILLSSYQSILFGNDCERTKHLDLVMLVTEVIAYSHCCMNPVIYAFVGERFRKYLRHFFHRHLLMHLGRYIPFLPSEKLERTSSVSPSTAEPELSIVF
notes: also called C-C CKR-3; CC-CKR-3
B1: binds [1].

B2: receptor for eotaxin on purified human eosinophils (single class of high affinity binding sites) (receptor)
chain: MTTSLDTVETFGTTSYYDDVGLLCEKADTRALMAQFVPPLYSLVFTFGLLGNVVVVMILIKYRRLRIMTNIYLLNLAISDLLFLVTLPFWIHYVRGHNWVFGHGMCKLLSGFYHTGLYSEIFFIILLTIDRYLAIVHAVFALRARTVTFGVITSIVTWGLAVLAALPEFIFYETEELFEETLCSALYPEDTVYSWRHFHTLRMTIFCLVLPLLVMAICYTGIIKTLLRCPSKKKYKAIRLIFVIMAVFFIFWTPYNVAILLSSYQSILFGNDCERTKHLDLVMLVTEVIAYSHCCMNPVIYAFVGERFRKYLRHFFHRHLLMHLGRYIPFLPSEKLERTSSVSPSTAEPELSIVF
Binder B2 has a Kd [2] of 4.7 nM.
